Data published in EP4613288A1.

How the values were obtained:
[1] = molecular target: human activated protein C (human) (UniProt P04070); experiment: cell-based or functional assay
[2] = molecular target: human activated protein C (human) (UniProt P04070)

Row | Mean Value of the Clotting Time (s), Protac-induced APTT, FIX-deficient plasma, antibody 0.5 µg/ml [1] [s] | Mean Value of the Clotting Time (s), Protac-induced APTT, FIX-deficient plasma, antibody 1 µg/ml [1] [s] | Mean Value of the Clotting Time (s), Protac-induced APTT, FIX-deficient plasma, antibody 5 µg/ml [1] [s] | Mean Value of the Clotting Time (s), Protac-induced APTT, FVIII-deficient plasma, antibody 0.5 µg/ml [1] [s] | Mean Value of the Clotting Time (s), Protac-induced APTT, FVIII-deficient plasma, antibody 1 µg/ml [1] [s] | Mean Value of the Clotting Time (s), Protac-induced APTT, FVIII-deficient plasma, antibody 5 µg/ml [1] [s] | minimal dose inhibiting aPC anticoagulant activity, Protac-induced APTT, human plasma deficient in various coagulation factors [1] [µg/mL] | fold increase in affinity compared to the humanized antibody without mutations in the CDR regions [2] [fold] | Binder
1 | 584 | 567 | 404 | 600 | 629 | 389 | > 100 |  | murine antibody HAPC1573 (antibody, from another filing, V domains shown) VH: EVKLEESGGGLVQPGGSMKLSCVASGFTFSNYYLNWVRQSPEKGLEWVADIRLKSNNYEKHYAESVKGRFTISRDDSKSSVYLQMNNLRAEDTGIYYCIREGDYFDYWGQGTTLTVSS VL: NIVLTQSPASLAVSLGQRATISCRASESVDSFGATFMHWYQQKPGQPPKLLIYLASNLESGVPARFSGSGSRTDFTLTIDPVEADDAATYYCQQNNEDPYTFGGGTKLEIKR
2 | 181 | 198 | 180 | 182 | 187 | 162 | < 1 | 100 | anti-aPC monoclonal antibody HAPC-14-6 (antibody, V domains shown) VH: EVQLVESGGGLVQPGGSLRLSCAASGFTFSFYYLNWVRQAPGKGLEWVGDIRLKKNNYEKHYAESVKGRFTISRDDSKSITYLQMNSLRAEDTAVYYCAREGDYFDYWGQGTTVTVSS VL: DIQLTQSPSSLSASVGDRVTITCRASESVDSFGATFMHWYQQKPGKAPKLLIYLASRLGSGVPSRFSGSGSGTDFTLTISSLQPEDFATYYCQQNNEDPYTFGQGTKLEIK
